Experiments:
[1] = biological target: T1, human IL1RAP on cells (endogenous) (human, UniProt Q9NPH3 21-570); experiment: cell-based or functional assay
T1 sequence (looked up): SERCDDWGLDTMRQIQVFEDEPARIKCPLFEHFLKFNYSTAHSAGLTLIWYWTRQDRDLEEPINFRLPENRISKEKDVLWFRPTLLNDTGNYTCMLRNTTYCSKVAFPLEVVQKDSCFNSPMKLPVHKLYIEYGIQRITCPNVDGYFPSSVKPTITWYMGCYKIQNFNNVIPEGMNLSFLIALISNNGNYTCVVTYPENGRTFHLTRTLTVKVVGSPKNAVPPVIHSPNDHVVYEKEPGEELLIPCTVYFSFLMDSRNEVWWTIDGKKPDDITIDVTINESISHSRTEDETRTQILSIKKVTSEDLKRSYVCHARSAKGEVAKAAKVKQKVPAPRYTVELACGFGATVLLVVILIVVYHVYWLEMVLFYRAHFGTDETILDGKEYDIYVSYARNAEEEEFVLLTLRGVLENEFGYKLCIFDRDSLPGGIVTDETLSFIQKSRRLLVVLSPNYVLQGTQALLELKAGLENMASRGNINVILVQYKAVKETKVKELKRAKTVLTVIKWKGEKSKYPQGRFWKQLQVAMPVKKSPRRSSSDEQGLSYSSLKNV

[2] = biological target: T1, human IL1RAP on cells (endogenous); experiment: cell-based or functional assay; remark: listed apart in the source
[3] = biological target: T1, human IL1RAP on cells (endogenous); experiment: cell-based or functional assay; remark: listed apart in the source
[4] = biological target: T2, cyno IL1RAP ECD displayed on HEK-293F cells (pDisplay) (cynomolgus monkey, UniProt P59822 21-367 (rhesus entry)); experiment: MSD cell binding, HEK-293F Cyno (clone CB8) cells displaying cyno IL1RAP ECD
T2 sequence: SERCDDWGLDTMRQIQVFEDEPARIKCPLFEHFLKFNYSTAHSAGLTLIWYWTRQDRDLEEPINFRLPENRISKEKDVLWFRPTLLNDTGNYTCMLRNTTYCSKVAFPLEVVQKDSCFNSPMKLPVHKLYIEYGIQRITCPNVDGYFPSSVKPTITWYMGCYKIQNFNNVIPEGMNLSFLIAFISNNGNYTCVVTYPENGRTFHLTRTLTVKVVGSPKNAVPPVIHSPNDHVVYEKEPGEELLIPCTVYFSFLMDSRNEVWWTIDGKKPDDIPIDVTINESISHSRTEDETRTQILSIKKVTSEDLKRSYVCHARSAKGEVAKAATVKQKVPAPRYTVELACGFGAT
Description: (§1) Cells were immobilized and IL1RAP antibody samples were assayed in triplicate. Briefly, expression supernatants of purified IL1RAP antibodies were normalized to 10 μg/mL. 5000 cells per well were plated into a 384 well plate (MA6000, cat. L21XB, MSD) and allowed to adhere for 2 hr. Cells were then blocked with 20% FBS in PBS (Gibco) for 15 mins. Antibody supernatants were then added and left at RT for 1 hr. Cells were washed 3 times with PBS and a ruthenium labeled secondary antibody (Mesoscale Discovery) was then added at 2 μg/mL and incubated for 1 hour at room temperature. A further washing step was then applied and 35 μL per well of 2×MSD Read buffer T (surfactant free) was then added and incubated for 5-30 minutes for detection. Plates were then read using Sector Imager 2400 (MSD). Data was normalized to controls and graphed using GraphPad Prism Version 5. A positive binder was determined to be a hit with a signal 3× greater than parental cell line background.
(§2) The MSD cell binding assay described in Example 4 was used to assess IL1RAP binding.

[5] = biological target: T3, human IL1RAP ECD displayed on HEK-293F cells (pDisplay) (human, UniProt Q9NPH3 21-367); experiment: MSD cell binding, HEK-293F Human (clone HE2) cells displaying human IL1RAP ECD
T3 construct: also called Human clone HE2 IL1RAP FL-ECD cell line
T3 sequence: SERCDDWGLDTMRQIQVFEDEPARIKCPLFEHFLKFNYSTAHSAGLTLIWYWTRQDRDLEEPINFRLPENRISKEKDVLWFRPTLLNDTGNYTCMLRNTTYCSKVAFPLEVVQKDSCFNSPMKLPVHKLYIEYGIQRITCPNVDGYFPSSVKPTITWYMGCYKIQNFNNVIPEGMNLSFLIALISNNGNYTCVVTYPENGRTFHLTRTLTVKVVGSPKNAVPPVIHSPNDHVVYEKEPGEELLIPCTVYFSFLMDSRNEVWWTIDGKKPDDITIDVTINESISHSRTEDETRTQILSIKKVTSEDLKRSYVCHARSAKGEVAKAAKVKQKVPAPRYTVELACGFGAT
Description: as §1, §2

human FcγRIIb = biological target: T4, human FcγRIIb (human, UniProt P31994 43-217, limits assumed); experiment: AlphaScreen competition, human FcγRIIb (n=1); displaced: biotinylated control mAb B21M hIgG1 WT; pH 7.2
T4 construct: GST-tagged
T4 sequence (looked up): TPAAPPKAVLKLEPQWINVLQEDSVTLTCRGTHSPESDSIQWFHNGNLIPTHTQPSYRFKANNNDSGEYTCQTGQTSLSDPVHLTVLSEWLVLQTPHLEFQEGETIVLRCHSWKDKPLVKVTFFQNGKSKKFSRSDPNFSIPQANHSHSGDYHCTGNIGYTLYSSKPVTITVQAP
Excerpt: (§3) Measurements were made using an AlphaScreen™ assay (Amplified Luminescent Proximity Homogeneous Assay (ALPHA), PerkinElmer, Wellesley, Mass.), a bead-based luminescent proximity assay. Laser excitation of a donor bead excites oxygen, which if sufficiently close to the acceptor bead generates a cascade of chemiluminescent events, ultimately leading to fluorescence emission at 520-620 nm.

human FcγRI = biological target: T5, human FcγRI (human, UniProt P12314 16-292, limits assumed); experiment: AlphaScreen competition, human FcγRI (n=1); displaced: biotinylated control mAb B21M hIgG1 AlaAla; pH 7.2
T5 construct: GST-tagged, on glutathione acceptor beads; also called FcγRT [sic]
T5 sequence (P12314 16-292 limits assumed): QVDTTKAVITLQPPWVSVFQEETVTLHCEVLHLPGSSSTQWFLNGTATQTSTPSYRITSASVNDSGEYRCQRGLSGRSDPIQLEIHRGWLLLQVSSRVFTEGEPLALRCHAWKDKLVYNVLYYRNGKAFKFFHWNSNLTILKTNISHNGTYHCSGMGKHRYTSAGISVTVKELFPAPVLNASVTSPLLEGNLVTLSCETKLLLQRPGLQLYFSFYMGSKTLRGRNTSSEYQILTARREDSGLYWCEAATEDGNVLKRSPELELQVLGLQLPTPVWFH
Excerpt: as §3

B1: IC3B19 (bispecific antibody, human IgG4 S228P, kappa, lambda, F234A L235A)
heavy 1: EVQLVESGGGLVQPGGSLRLSCAASGFTFNTYAMNWVRQAPGKGLEWVARIRSKYNNYATYYAASVKGRFTISRDDSKNSLYLQMNSLKTEDTAVYYCARHGNFGNSYVSWFAYWGQGTLVTVSSASTKGPSVFPLAPCSRSTSESTAALGCLVKDYFPEPVTVSWNSGALTSGVHTFPAVLQSSGLYSLSSVVTVPSSSLGTKTYTCNVDHKPSNTKVDKRVESKYGPPCPPCPAPEAAGGPSVFLFPPKPKDTLMISRTPEVTCVVVDVSQEDPEVQFNWYVDGVEVHNAKTKPREEQFNSTYRVVSVLTVLHQDWLNGKEYKCKVSNKGLPSSIEKTISKAKGQPREPQVYTLPPSQEEMTKNQVSLTCLVKGFYPSDIAVEWESNGQPENNYKTTPPVLDSDGSFLLYSKLTVDKSRWQEGNVFSCSVMHEALHNHYTQKSLSLSLGK
light 1: QTVVTQEPSLTVSPGGTVTLTCRSSTGAVTTSNYANWVQQKPGQAPRGLIGGTNKRAPGTPARFSGSLLGGKAALTLSGVQPEDEAEYYCALWYSNLWVFGGGTKLTVLGQPKAAPSVTLFPPSSEELQANKATLVCLISDFYPGAVTVAWKADSSPVKAGVETTTPSKQSNNKYAASSYLSLTPEQWKSHRSYSCQVTHEGSTVEKTVAPTECS
heavy 2: not shown
light 2: DIQLTQSPSFLSASVGDRVTITCRASQGISSYLAWYQQKPGKAPKLLIYAASTLQSGVPSRFSGSGSGTEFTLTISSLQPEDFATYYCQQVNSYPLTFGGGTKVEIKRTVAAPSVFIFPPSDEQLKSGTASVVCLLNNFYPREAKVQWKVDNALQSGNSQESVTEQDSKDSTYSLSSTLTLSKADYEKHKVYACEVTHQGLSSPVTKSFNRGEC
notes: IgG4-PAA, Fab arm exchange; also called IAPB57 x CD3B219; IL1RAP x CD3
- mean EC50, T-cell activation, OCI-AML5 cells in whole blood, 48 h [1]: 5990 pM
- mean EC50, cytotoxicity of OCI-AML5 cells in whole blood, 48 h [1]: 3130 pM
- EC50, caspase area/well AUC, Calu-3 with T cells, 72 h [2]: 716 pM
- EC50, caspase area/well AUC, DU145 with T cells, 72 h [2]: 445 pM
- EC50, caspase area/well AUC, H196 with T cells, 72 h [2]: 19 pM
- EC50, caspase area/well AUC, H226 with T cells, 72 h [2]: 134 pM
- EC50, caspase area/well AUC, H716 with T cells, 72 h [2]: 4 pM
- EC50, caspase area/well AUC, H1975 with T cells, 72 h [2]: 13 pM
- EC50, caspase area/well AUC, H2172 with T cells, 72 h [2]: 39 pM
- EC50, caspase area/well AUC, H2228 with T cells, 72 h [2]: 43 pM
- EC50, caspase area/well AUC, LNCAP with T cells, 72 h [2]: 39 pM
- EC50, caspase area/well AUC, PC3 with T cells, 72 h [2]: 102 pM
- EC50, caspase area/well AUC, Panc0213 with T cells, 72 h [2]: 192 pM
- EC50, caspase area/well AUC, Panc0327 with T cells, 72 h [2]: 181 pM
- EC50, caspase area/well AUC, SKMES-1 with T cells, 72 h [2]: 31 pM
- EC50, caspase area/well AUC, SW1271 with T cells, 72 h [2]: 78 pM
- Average EC50, T-cell mediated cytotoxicity, ALL-SIL [3]: 4 pM
- Average EC50, T-cell mediated cytotoxicity, HPB-ALL [3]: 8 pM
- Average EC50, T-cell mediated cytotoxicity, LAMA-84 [3]: 1 pM
- Average EC50, T-cell mediated cytotoxicity, MEG-01 [3]: 2 pM
- EC50 (read off the curve) [4]: ~1 µg/mL
- EC50 (read off the curve) [5]: ~1 µg/mL
- binding result (human FcγRIIb): binds
- IC50 (read off the curve) (human FcγRI): ~90000 pM
